{"source": "patent US20040265325A1", "target": "CD8+ T cells (T cell receptors) of CMV-seropositive human donors", "assay": "flow cytometry, tetramer staining of CD8+ cells; background that was subtracted", "note": "Where “and” joins values, the source holds several entries; their conditions need not be identical. Identical values can stand only once."}
{"substance": "HIV pol464-472 control tetramer (from UniProt P61769 21-119) (peptide-MHC)", "values": [{"measurement": "CD8+ binding percentages to control tetramer", "value": "0.07% and 0.1%"}]}
